According to patent publication US20250042944A1 (NATIONAL MARINE BIODIVERSITY INSTITUTE OF KOREA, published 2025):
Bridges are numbered along the chain shown (N, C = ends). Where no end group is shown, it is not given here.

T1: recombinant human vasopressin V1B receptor (human, UniProt P47901 1-424)
T1 sequence (looked up): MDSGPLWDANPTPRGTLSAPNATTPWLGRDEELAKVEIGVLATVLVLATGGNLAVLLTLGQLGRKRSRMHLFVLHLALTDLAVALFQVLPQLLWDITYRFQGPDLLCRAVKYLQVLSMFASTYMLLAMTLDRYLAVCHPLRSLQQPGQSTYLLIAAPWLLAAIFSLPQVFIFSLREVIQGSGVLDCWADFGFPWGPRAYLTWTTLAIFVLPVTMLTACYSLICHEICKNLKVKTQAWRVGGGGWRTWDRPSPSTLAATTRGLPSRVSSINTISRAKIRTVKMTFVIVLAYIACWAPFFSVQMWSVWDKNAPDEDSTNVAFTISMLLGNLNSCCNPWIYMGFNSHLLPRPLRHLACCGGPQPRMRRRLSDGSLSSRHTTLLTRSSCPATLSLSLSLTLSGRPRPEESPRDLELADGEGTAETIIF

T2: recombinant human oxytocin receptor (human, UniProt P30559 1-389)
T2 sequence (looked up): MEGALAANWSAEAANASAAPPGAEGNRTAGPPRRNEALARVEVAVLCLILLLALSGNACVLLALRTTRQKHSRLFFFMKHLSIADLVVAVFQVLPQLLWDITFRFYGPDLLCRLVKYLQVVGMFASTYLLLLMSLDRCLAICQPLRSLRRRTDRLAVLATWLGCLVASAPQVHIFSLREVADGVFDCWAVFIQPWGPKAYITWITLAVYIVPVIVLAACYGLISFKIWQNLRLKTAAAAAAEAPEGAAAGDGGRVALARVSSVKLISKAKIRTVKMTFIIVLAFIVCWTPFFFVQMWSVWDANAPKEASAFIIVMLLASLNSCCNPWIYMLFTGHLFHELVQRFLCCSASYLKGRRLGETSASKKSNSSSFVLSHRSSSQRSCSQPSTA

B1: Squidtocin (peptide)
peptide: CYFRNCPAG-NH2
modifications: disulfide 1-6; N-terminus assumed
SMILES: C[C@H](NC(=O)[C@@H]1CCCN1C(=O)[C@@H]1CSSC[C@H](N)C(=O)N[C@@H](Cc2ccc(O)cc2)C(=O)N[C@@H](Cc2ccccc2)C(=O)N[C@@H](CCCNC(=N)N)C(=O)N[C@@H](CC(N)=O)C(=O)N1)C(=O)NCC(N)=O
B2: Pro-sepiatocin (peptide)
peptide: CFFRNCPPG-NH2
modifications: disulfide 1-6; N-terminus assumed
SMILES: N=C(N)NCCC[C@@H]1NC(=O)[C@H](Cc2ccccc2)NC(=O)[C@H](Cc2ccccc2)NC(=O)[C@@H](N)CSSC[C@@H](C(=O)N2CCC[C@H]2C(=O)N2CCC[C@H]2C(=O)NCC(N)=O)NC(=O)[C@H](CC(N)=O)NC1=O

How the values were obtained:
Experiment in all cases: cell-based or functional assay
[1] = molecular target: T1, recombinant human vasopressin V1B …
[2] = molecular target: recombinant human vasopressin V2 receptor (human, UniProt P30518 1-371)
[3] = molecular target: T2, recombinant human oxytocin receptor

Binder | EC50 of receptor activation (intracellular calcium increase, calcium dye fluorescence imaging, RBL cells) [1] [µM] | EC50 of receptor activation (intracellular cAMP accumulation, HTRF, CHO cells) [2] [µM] | IC50 of receptor inhibition (calcium response to 30 nM oxytocin, calcium dye fluorescence imaging, ECV304 cells) [3] [µM]
B1 | 0.00094 | 0.042 | –
B2 | 0.214 | – | 16
